The text below walks through data of US20240425837A1 (Novo Nordisk, published 2024).

No end group written: not given here.

Holding throughout (experiment): ELISA, biotinylated 12-mer peptide on streptavidin, 2 ug/mL FLAG-tagged VHH, anti-FLAG-HRP
A general note: In an ELISA, binding on a coated surface is turned into a signal by an enzyme label.

For assay [1], the target named is T1, FX activation peptide 12-mer PFDLLDFNQTQP (SEQ ID NO:724) (human).
T1 peptide: PFDLLDFNQTQP-biotin
As to the method:
(§1) To determine whether the binding epitope of the anti-FX VHH polypeptide designated “cmpd #1” are located inside the activation peptide (AP) of human FX (SEQ ID NO:2), an ELISA assay was setup. 41 unique 12-mer peptide fragments spanning the 52 residues of the activation peptide with one amino acid spacing were immobilized in microtiter plate wells followed by incubation with the VHH polypeptide to be tested, and detection of bound ligand was performed by addition of a secondary HRP-labelled antibody.
(§2) The peptides were C-terminally conjugated to biotin and 50 μL of 1 μg/mL peptide solution was used for immobilization in discrete wells of the microtiter plate which was pre-coated with 1 μg/mL streptavidin. Each well was washed with washing buffer (10 mM Tris, 150 mM NaCl, 2.5 mM CaCl₂, 0.05% Tween 20, pH 8.60) followed by addition of 50 μL of 2 μg/mL FLAG-tagged anti-FX VHH polypeptide or IgG antibody to be tested. After 1 hour non-bound VHH polypeptide was washed off using washing buffer.
(§3) Bound anti-FX activation peptide ligand was detected by first binding a HRP-labelled secondary antibody (for FLAG-tagged VHH polypeptide: Anti-FLAG mAb M2-Peroxidase (HRP) (Sigma Aldrich, US) for 1 hour, and then adding 100 μL TMB-1 ELISA substrate (Kem-En-Tec Diagnostics, Denmark).

Assay [2] addresses T2, FX activation peptide 12-mer NPFDLLDFNQTQ (SEQ ID NO:723) (human).
T2 peptide: NPFDLLDFNQTQ-biotin
As to the method:
as §1, §2, §3

The target in assay [3] is T3, FX activation peptide 12-mer LDPTENPFDLLD (SEQ ID NO:718) (human).
T3 peptide: LDPTENPFDLLD-biotin
As to the method:
as §1, §2, §3

The target of assay [4] is T4, FX activation peptide 12-mer FDLLDFNQTQPE (SEQ ID NO:725) (human).
T4 peptide: FDLLDFNQTQPE-biotin
The method, then: as §1, §2, §3

B1: Cmpd #1 (monovalent anti-FX VHH polypeptide, VHH-1.1) (VHH)
VHH: EVQLVESGGGLVQPGGSLRLSCAASGSIGAFDAMGWYRQAPGKQRELVAGIMVSRGNTNYTDSVKGRFTISRDNAKNTVYLQMNSLKPEDTAVYYCKAVKRPGPGYLEVWGQGTLVTVSS
notes: no protractor; FLAG-tagged in the peptide ELISA
Turning to B1, the “ELISA signal normalized relative to the background signal” value in assay [1] was 4.95 fold of background; in assay [2] it was 3.13 fold of background; in assay [3], 1.11 fold of background; in assay [4], 4.38 fold of background.
